Substrate in the data set: Nc1ncnc2c1ncn2[C@@H]1O[C@H](COP(=O)(O)OP(=O)(O)OP(=O)(O)O)[C@@H](O)[C@H]1O
The experiment in a line: purified protein, by the assay type.

Positions count from the first letter of the chain named. Numbers in names are those of the source.

The record followed here is article PMC3385512.

B1: ALK (V1058-P1620) G1202R (Homo sapiens; G1202R) (protein)
chain: VYRRKHQELQAMQMELQSPEYKLSKLRTSTIMTDYNPNYCFAGKTSSISDLKEVPRKNITLIRGLGHGAFGEVYEGQVSGMPNDPSPLQVAVKTLPEVCSEQDELDFLMEALIISKFNHQNIVRCIGVSLQSLPRFILLELMAGRDLKSFLRETRPRPSQPSSLAMLDLLHVARDIACGCQYLEENHFIHRDIAARNCLLTCPGPGRVAKIGDFGMARDIYRASYYRKGGCAMLPVKWMPPEAFMEGIFTSKTDTWSFGVLLWEIFSLGYMPYPSKSNQEVLEFVTSGGRMDPPKNCPGPVYRIMTQCWQHQPEDRPNFAIILERIEYCTQDPDVINTALPIEYGPLVEEEEKVPVRPKDPEGVPPLLVSQQAKREEERSPAAPPPLPTTSSGKAAKKPTAAEISVRVPRGPAVEGGHVNMAFSQSNPPSELHKVHGSRNKPTSLWNPTYGSWFTEKPTKKNNPIAKKEPHDRGNLGLEGSCTVPPNVATGRLPGASLLLEPSSLTANMKEVPLFRLRHFPCGNVNYGYQQQGLPLEAATAPGAGHYEDTILKSKNSMNQPGP
Consider B1, for which the Km (other: ALK G1202R) amounted to 23 µM.

B2: ALK (V1058-P1620) S1206Y (Homo sapiens; S1206Y) (protein)
chain: B1 chain with R145G, S149Y
Take B2: the Km (other: ALK S1206Y) is 20 µM.
